Data reported in the supplement of paper PMC9942255.
Where “and” joins values, the source holds several entries; their conditions need not be identical. Identical values can stand only once.

Test system: Bacillus subtilis DB104 (SP-AmyQ fusion secretion)
Test: AmyQ secretion efficiency, weighted average sort bin (1 = best secretion, 10 = worst) (bin number (weighted average, 1-10)); higher = lower secretion efficiency
Summary of the method: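 Secretion score gives the read-frequency-weighted average bin number, normalised to beads per bin, with low-abundance sequences left out. A B. subtilis DB104 library expressing mature AmyQ fused to designed signal peptides, integrated at amyE, was encapsulated with fluorescein-starch at about 0.3 cells per ~65 nL alginate bead. Beads were grown about 13 h at room temperature, stained with nile red, and the occupied ones were sorted by large-particle flow cytometry into 10 equally populated bins by green/red fluorescence ratio before the amplicons from each bin were Illumina-sequenced.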

Row | Sequence | AmyQ secretion efficiency
1 | MKRIRIPMTLALGAALTIAPLSFASAKKR | 3.26
2 | MKRIRIPMTLALGAALTIAPLSFASCEEN | 4.65
3 | MKRIRIPMTLALGAALTIAPLSFASFEEN | 6.34
4 | MKRIRIPMTLALGAALTIAPLSFASGEEN | 3.92
5 | MKRIRIPMTLALGAALTIAPLSFASKEEN | 6.64
6 | MKRIRIPMTLALGAALTIAPLSFASLEEN | 6.43
7 | MKRIRIPMTLALGAALTIAPLSFASMEEN | 6.12
8 | MKRIRIPMTLALGAALTIAPLSFASNEEN | 7.9
9 | MKRIRIPMTLALGAALTIAPLSFASPEEN | 8.17
10 | MKRIRIPMTLALGAALTIAPLSFASQEEN | 7.06
11 | MKRIRIPMTLALGAALTIAPLSFASREEN | 6.16
12 | MKRIRIPMTLALGAALTIAPLSFASSEEN | 4.71
13 | MKRIRIPMTLALGAALTIAPLSFASTEEN | 8.25
14 | MKRIRIPMTLALGAALTIAPLSFASVEEN | 6.71
15 | MKRIRIPMTLALGAALTIAPLSFASWEEN | 6.97
16 | MKRIRIPMTLALGAALTIAPLSFASYEEN | 6.51
17 | MKRIRIPMTLALGAALTIAPLSFDSAEEN | 7.3
18 | MKRIRIPMTLALGAALTIAPLSFESAEEN | 5.54
19 | MKRIRIPMTLALGAALTIAPLSFFSAEEN | 6.31
20 | MKRIRIPMTLALGAALTIAPLSFGSAEEN | 4.51
21 | MKRIRIPMTLALGAALTIAPLSFHSAEEN | 7.02
22 | MKRIRIPMTLALGAALTIAPLSFISAEEN | 3.01
23 | MKRIRIPMTLALGAALTIAPLSFKSAEEN | 6.9
24 | MKRIRIPMTLALGAALTIAPLSFLSAEEN | 4.62
25 | MKRIRIPMTLALGAALTIAPLSFNSAEEN | 7.4
26 | MKRIRIPMTLALGAALTIAPLSFPATVPGAGGTTASAEEN | 4.38

Row | Sequence | AmyQ secretion efficiency
27 | MKRIRIPMTLALGAALTIAPLSFPSAEEN | 6.68
28 | MKRIRIPMTLALGAALTIAPLSFQSAEEN | 6.97
29 | MKRIRIPMTLALGAALTIAPLSFRSAEEN | 7.87
30 | MKRIRIPMTLALGAALTIAPLSFSSAEEN | 4.73
31 | MKRIRIPMTLALGAALTIAPLSFTGFGPAGASAEEN | 3.89
32 | MKRIRIPMTLALGAALTIAPLSFTSAEEN | 3.52
33 | MKRIRIPMTLALGAALTIAPLSFVSAEEN | 2.58
34 | MKRIRIPMTLALGAALTIAPLSFWSAEEN | 6.56
35 | MKRIRIPMTLALGAALTIAPLSFYSAEEN | 5.14
36 | MKRIRIPMTLALGAALTIAPLTVATASFASAEEN | 4.63
37 | MKRIRIPMTLALGAALTIAPLVFASAEEN | 4.55
38 | MKRIRIPMTLALGAALTIAPLVLTVFAALSSFASAEEN | 6.39
39 | MKRIRIPMTLALGAALTISFASAEEN | 6.71
40 | MKRIRIPMTLALSAALIIALLSFASAEEN | 5.6
41 | MKRIRIPMTLKKGAALTIAPLSFASAEEN | 7.82
42 | MKRIRIPMTLKRKRKRTIAPLSFASAEEN | 8.12
43 | MKRIRIPMTLRKKRALTIAPLSFASAEEN | 7.44
44 | MKRIRIPMTLSTLALGAALTIAPLSFASAEEN | 3.35
45 | MKRIRIPMTYRYQSALTIAPLSFASAEEN | 7.35
46 | MKRIRIPMTYTGTAALTIAPLSFASAEEN | 7.36
47 | MKRITIIITMFIAAAVISLTGTAEAAEK | 2.84
48 | MKRITINIITMFIAAAVIEEDEEAEAAEK | 5.79
49 | MKRITINIITMFIAAAVIFLVVFTSSGTAEAAEK | 2.77
50 | MKRITINIITMFIAAAVIKRRRRKKAEAAEK | 6.55
51 | MKRITINIITMFIAAAVISLTGTAEAAPK | 2.12
52 | MKRITINIITMFIAAAVISLTGTAEAASS | 2.16

Row | Sequence | AmyQ secretion efficiency
53 | MKRITINIITMFIAAAVIVFSLTGTAEAAEK | 2.39
54 | MKRITINIKRRKRRAAVISLTGTAEAAEK | 7.96
55 | MKRITINIRRKKIAAAVISLTGTAEAAEK | 6.82
56 | MKRITINITIITMFIAAAVISLTGTAEAAEK | 2.69
57 | MKRITINSNFSNIITMFIAAAVISLTGTAEAAEK | 3.07
58 | MKRKIVRMTLPLLIVCLAFSSFSASARAASE | 2.21
59 | MKRKKCSICCAAVLLAGGAAQAEAV | 6.17
60 | MKRKKIMIFLTSFMLLAMTGQTALAKDV | 3.1
61 | MKRKKKKASLVLFAVVFVFAVKGAPAKAETH | 2
62 | MKRKKKRLCVMMLLFSAIASFPVSAQAKDQ | 3.18
63 | MKRKKLCLWFTVFSLFLVLLPGKALGAVD | 4.65
64 | MKRKKLCVMMLLFSAIASFPVSAQAKDQ | 2.65
65 | MKRKKLLSTLLIGIMLLTFAPSAFAKQD | 1.35
66 | MKRKKLLVSLRVWMVFLMNWVTPDRKTAAAAVY | 7.43
67 | MKRKKMSGLLLVAVGFSFTQVMVHAGET | 6.25
68 | MKRKKRGSKRTSALSLGLLVSAPTASFAAES | 6.79
69 | MKRKKVLLSALLLLLFAFEPSASGKKL | 2.93
70 | MKRKLKKSLAISALSLGLLVSAPTASFAAES | 3.49
71 | MKRKLKRKKAISALSLGLLVSAPTASFAAES | 4.1
72 | MKRKLLSSLAISALSLGLLVKRRKKKSFAAES | 7.18
73 | MKRKLLSSLAISALSLGLLVRKRTASFAAES | 6.75
74 | MKRKLLSSLAISALSLGLLVSAPTAGFAAES | 3.25
75 | MKRKLLSSLAISALSLGLLVSAPTALFAAES | 2.49
76 | MKRKLLSSLAISALSLGLLVSAPTASFAASS | 1.56
77 | MKRKLLSSLAISALSLGLLVSAPTASFAATR | 2.21
78 | MKRKLLSSLAISALSLGLLVSAPTASFADDE | 5.75

Row | Sequence | AmyQ secretion efficiency
79 | MKRKLLSSLAISALSLGLLVSAPTASFARKR | 3.11
80 | MKRKLLSSLAISALSLGLLVSAPTASFGAES | 3.96
81 | MKRKLLSSLAISALSLGLLVSAPTASFVAES | 6.45
82 | MKRKLLSSLAISALSLGLLVSAPTATFAAES | 3.04
83 | MKRKLLSSLAISALSLGLLVSAPTAWFAAES | 9.22
84 | MKRKLLSSLAISALSLGLLVSGPTTSFAAES | 3.9
85 | MKRKLLSSLAISALSLGSAPTASFAAES | 3.3
86 | MKRKLLSSLAISASAPTASFAAES | 7.94
87 | MKRKLRRKRRKSALSLGLLVSAPTASFAAES | 7.05
88 | MKRKQQKSLAISALSLGLLVSAPTASFAAES | 3.07
89 | MKRKQYSGRKLSIIVAYPIQTNASPM | 6.49
90 | MKRKRFLIGAGVAAVILSGWFIADHQTHSQEM | 5.04
91 | MKRKRKRIMIFLTSFMLLAMTGQTALAKDV | 3.59
92 | MKRKRLFIFSAILTLSIFAPNETFAQTA | 1.57
93 | MKRKRLLSSLAISALSLGLLVSAPTASFAAES | 2.64 and 3.51
94 | MKRKRLLSTLLIGIMLLTFAPSAFAKQD | 1.87
95 | MKRKRRKMACLILFSFTITTFINTETISAFSN | 2.31
96 | MKRKRSIMACLILFSFTITTFINTETISAFSN | 3.86
97 | MKRKSCKLVVSVTLFFSFLTIGPLAHAQNS | 1.46
98 | MKRKSMSFSLSNLLSSLAISALSLGLLVSAPTASFAAES | 2.5
99 | MKRKTLSSLAISALSLGLLVSAPTASFAAES | 2.4
100 | MKRLALGAALTIAPLSFASAEEN | 5.98
101 | MKRLCKKRKVFSLFLVLLPGKALGAVD | 7.25
102 | MKRLCLWFTVFSLFLVLLPGKALGARR | 2.37
103 | MKRLCLWFTVFSLFLVLLPGKALGAVD | 3.84
104 | MKRLCLWFTVFSLFLVLLPGKALGKKR | 2.36

Row | Sequence | AmyQ secretion efficiency
105 | MKRLCLWFTVFSLFLVLLPGKALYAVD | 4.11
106 | MKRLCLWFTVFSPGKALGAVD | 7.52
107 | MKRLCRKKRKKSLFLVLLPGKALGAVD | 7.45
108 | MKRLFISSAVLLSILLPSGQAHAQSA | 2.34
109 | MKRLFMKAKLVLFAVVFVFAVKGAPAKAETH | 2.67
110 | MKRLFMKARRKKKAVVFVFAVKGAPAKAETH | 8.85
111 | MKRLFMKARRRLFAVVFVFAVKGAPAKAETH | 6.05
112 | MKRLFMKASLVLFAVVFVFAVKGADAKAETH | 2.52
113 | MKRLFMKASLVLFAVVFVFAVKGADEEDEEEAKAETH | 7.15
114 | MKRLFMKASLVLFAVVFVFAVKGAGAKAETH | 1.83
115 | MKRLFMKASLVLFAVVFVFAVKGAIAKAETH | 2.52
116 | MKRLFMKASLVLFAVVFVFAVKGAKRAKAETH | 2.04
117 | MKRLFMKASLVLFAVVFVFAVKGAPAKAADD | 3.6
118 | MKRLFMKASLVLFAVVFVFAVKGAPAKAAKR | 3.29
119 | MKRLFMKASLVLFAVVFVFAVKGAPAKAATH | 1.71
120 | MKRLFMKASLVLFAVVFVFAVKGAPAKADEE | 2.81
121 | MKRLFMKASLVLFAVVFVFAVKGAPAKGETH | 2.19
122 | MKRLFMKASLVLFAVVFVFAVKGAPIKAETH | 2.24
123 | MKRLFMKASLVLFAVVFVFAVKGAPKAKAETH | 1.9
124 | MKRLFMKASLVLFAVVFVFAVKGAPLKAETH | 2.67
125 | MKRLFMKASLVLFAVVFVFAVKGAPMKAETH | 1.95
126 | MKRLFMKASLVLFAVVFVFAVKGAPTKAETH | 2.27
127 | MKRLFMKASLVLFAVVFVFKPAKAETH | 3.15
